In the supplement of paper PMC9732359:
± gives the uncertainty stated by the source.

Assay: protein stability index of a GFP-peptide fusion (yeast GPS) (PSI 1-4); higher = more stable; sorted into four equal gates, so the index is relative within each strain
Procedure, shortened: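 Tiled yeast protein peptides of 17 residues were each joined downstream of GFP, on plasmids that also express Cherry. The pooled library was maintained in yeast, and mid-log cultures in leucine-free medium were sorted into four equal gates on the GFP/Cherry ratio. Plasmids from every gate were amplified by PCR and sequenced on Illumina, with barcodes linking reads to strains. The protein stability index of a peptide is its gate-number-weighted read frequency summed over the gates.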

GELKRGNESVKPQFENH [MED11]
protein stability index (doa10∆): 3.34 ± 0.18
protein stability index (pdr5∆): 3.21 ± 0.089
protein stability index (san1∆): 2.98 ± 0.11
protein stability index (ubr1∆): 2.97 ± 0.16

GESARRFQKCFPPGVIG [RPC40]
protein stability index (doa10∆): 2.24 ± 0.1
protein stability index (pdr5∆): 2.34 ± 0.18
protein stability index (ubr1∆): 2.83 ± 0.12

GFALNSDIVFIHQNAGR [BRR2]
protein stability index (doa10∆): 3.03 ± 0.12
protein stability index (pdr5∆): 2.09 ± 0.09
protein stability index (san1∆): 1.78 ± 0.2
protein stability index (ubr1∆): 2.02 ± 0.057

GFANSLTFILGQLLSVK [YML031W/NDC1]
protein stability index (doa10∆): 1.13 ± 0.13
protein stability index (pdr5∆): 1.46 ± 0.18
protein stability index (san1∆): 1.2 ± 0.22
protein stability index (ubr1∆): 1.26 ± 0.12

GFIETTELLNIYDSEDP [RPN3]
protein stability index (doa10∆): 2.71 ± 0.091
protein stability index (pdr5∆): 3.01 ± 0.095
protein stability index (san1∆): 2.85 ± 0.084
protein stability index (ubr1∆): 3.06 ± 0.075

GFTASVSNQENAGTDIV [MED1]
protein stability index (doa10∆): 2.95 ± 0.14
protein stability index (pdr5∆): 2.91 ± 0.13
protein stability index (san1∆): 2.64 ± 0.16
protein stability index (ubr1∆): 3.07 ± 0.072

GFVIQDRETALDFIGRR [RPB2]
protein stability index (doa10∆): 3.02 ± 0.075
protein stability index (pdr5∆): 2.92 ± 0.13
protein stability index (san1∆): 3.34 ± 0.077
protein stability index (ubr1∆): 3 ± 0.11

GGDGRDYKGAKLNVVGW [RRI1]
protein stability index (doa10∆): 3.15 ± 0.15
protein stability index (pdr5∆): 3.15 ± 0.15
protein stability index (san1∆): 2.56 ± 0.12
protein stability index (ubr1∆): 3.23 ± 0.084

GGLNDPRLGSIDRNLKC [RPO21]
protein stability index (doa10∆): 3.35 ± 0.17
protein stability index (pdr5∆): 3.28 ± 0.11
protein stability index (san1∆): 3.32 ± 0.094
protein stability index (ubr1∆): 3.33 ± 0.086

GGQRSLIALSLIMALLQ [SMC2]
protein stability index (doa10∆): 1.33 ± 0.056
protein stability index (pdr5∆): 1.52 ± 0.063
protein stability index (san1∆): 1.73 ± 0.099
protein stability index (ubr1∆): 2.24 ± 0.036

GGSAKPSLKFKPKAVAR [RPC53]
protein stability index (doa10∆): 2.79 ± 0.11
protein stability index (pdr5∆): 2.7 ± 0.081
protein stability index (san1∆): 2.44 ± 0.067
protein stability index (ubr1∆): 2.92 ± 0.073

GGSTTNNTTTTSTKPSF [YOR098C/NUP1]
protein stability index (doa10∆): 2.79 ± 0.075
protein stability index (pdr5∆): 3.01 ± 0.074
protein stability index (san1∆): 2.8 ± 0.072
protein stability index (ubr1∆): 2.75 ± 0.067

GGVMANRKIARMRHSKR [YOR098C/NUP1]
protein stability index (doa10∆): 3.31 ± 0.13
protein stability index (pdr5∆): 3.6 ± 0.085
protein stability index (san1∆): 3.34 ± 0.09
protein stability index (ubr1∆): 3.32 ± 0.1

GHIVSLELTTGATYRGK [SMD3]
protein stability index (doa10∆): 1.98 ± 0.049
protein stability index (pdr5∆): 2.03 ± 0.049
protein stability index (san1∆): 2.12 ± 0.085
protein stability index (ubr1∆): 2.34 ± 0.053

GHLNGHTPTIASYLTPL [SSN2]
protein stability index (doa10∆): 2.24 ± 0.039
protein stability index (pdr5∆): 2.74 ± 0.043
protein stability index (san1∆): 2.62 ± 0.044
protein stability index (ubr1∆): 2.54 ± 0.035

GHPMTKSVYETPKITAA [SEC65]
protein stability index (doa10∆): 2.83 ± 0.17
protein stability index (pdr5∆): 2.63 ± 0.084
protein stability index (san1∆): 2.03 ± 0.24
protein stability index (ubr1∆): 1.91 ± 0.062

GHYQAFIRDELDENKWY [UBP6]
protein stability index (doa10∆): 1.49 ± 0.057
protein stability index (pdr5∆): 1.88 ± 0.047
protein stability index (san1∆): 1.53 ± 0.12
protein stability index (ubr1∆): 1.85 ± 0.063

GIDINTKIFNSVAEVFQ [YCG1]
protein stability index (doa10∆): 2.08 ± 0.1
protein stability index (pdr5∆): 2.93 ± 0.12
protein stability index (san1∆): 2.39 ± 0.12
protein stability index (ubr1∆): 2.86 ± 0.067

GIHILLYSGLIIDEIIT [RPC82]
protein stability index (doa10∆): 1.15 ± 0.094
protein stability index (pdr5∆): 1.41 ± 0.25
protein stability index (ubr1∆): 1.21 ± 0.082

GINQILGNEKNQASTSK [CDC53]
protein stability index (doa10∆): 3.08 ± 0.15
protein stability index (pdr5∆): 3.25 ± 0.14
protein stability index (san1∆): 3.11 ± 0.092
protein stability index (ubr1∆): 3.2 ± 0.073

GIRIISLTYKKISLRDI [RPN3]
protein stability index (doa10∆): 1.78 ± 0.068
protein stability index (pdr5∆): 1.4 ± 0.065
protein stability index (san1∆): 1.29 ± 0.15
protein stability index (ubr1∆): 1.5 ± 0.053

GIRYIRLKQVFNRALDQ [NNF1]
protein stability index (doa10∆): 1.79 ± 0.035
protein stability index (pdr5∆): 1.95 ± 0.027
protein stability index (san1∆): 2.04 ± 0.036
protein stability index (ubr1∆): 2.12 ± 0.025

GISINNMMEHWDYLQLT [RPO31]
protein stability index (doa10∆): 2.84 ± 0.087
protein stability index (pdr5∆): 2.81 ± 0.073
protein stability index (san1∆): 2.8 ± 0.14
protein stability index (ubr1∆): 2.65 ± 0.065

GISLVMEIVANAKESNY [MED1]
protein stability index (doa10∆): 1.77 ± 0.065
protein stability index (pdr5∆): 1.98 ± 0.069
protein stability index (san1∆): 2.28 ± 0.085
protein stability index (ubr1∆): 2.15 ± 0.043

GISNGSESKDSDKPSLP [YLR335W/NUP2]
protein stability index (doa10∆): 3.29 ± 0.13
protein stability index (pdr5∆): 3.19 ± 0.12
protein stability index (ubr1∆): 2.79 ± 0.13

GISSAYIKSATLYSVKS [SNU114]
protein stability index (doa10∆): 1.39 ± 0.12
protein stability index (pdr5∆): 1.43 ± 0.11
protein stability index (san1∆): 1.67 ± 0.26
protein stability index (ubr1∆): 1.75 ± 0.17

GITGNLDRIPMHSYFIF [COB]
protein stability index (doa10∆): 2.13 ± 0.12
protein stability index (pdr5∆): 2.19 ± 0.085
protein stability index (san1∆): 2.39 ± 0.072
protein stability index (ubr1∆): 2.43 ± 0.12

GKDCKLQNLQRIIRKKI [RRI2]
protein stability index (doa10∆): 2.98 ± 0.092
protein stability index (pdr5∆): 3.51 ± 0.14
protein stability index (san1∆): 3.14 ± 0.096
protein stability index (ubr1∆): 3.05 ± 0.13

GKDLSPAINYTKLKNAV [QCR2]
protein stability index (doa10∆): 1.91 ± 0.064
protein stability index (pdr5∆): 1.64 ± 0.06
protein stability index (san1∆): 2.15 ± 0.094
protein stability index (ubr1∆): 1.54 ± 0.048

GKDRIAINVFPEGYKAK [RPO31]
protein stability index (doa10∆): 2.37 ± 0.061
protein stability index (pdr5∆): 2.28 ± 0.079
protein stability index (san1∆): 2.5 ± 0.07
protein stability index (ubr1∆): 2.68 ± 0.072

GKGPGCGFWQPAWRVWL [PRP8]
protein stability index (doa10∆): 2.58 ± 0.19
protein stability index (ubr1∆): 2.1 ± 0.19

GKGRFQTPAEKHAFMGT [RPL3]
protein stability index (doa10∆): 3.13 ± 0.17
protein stability index (pdr5∆): 3.2 ± 0.061
protein stability index (san1∆): 2.97 ± 0.1
protein stability index (ubr1∆): 2.98 ± 0.093

GKGTGKTAMAELALLNH [BRR2]
protein stability index (doa10∆): 3.19 ± 0.11
protein stability index (pdr5∆): 3.51 ± 0.15
protein stability index (san1∆): 3.45 ± 0.099
protein stability index (ubr1∆): 3.22 ± 0.082

GKLLLDEHNELMRQALA [RPO21]
protein stability index (doa10∆): 2.41 ± 0.052
protein stability index (pdr5∆): 2.54 ± 0.086
protein stability index (san1∆): 2.02 ± 0.074
protein stability index (ubr1∆): 2.84 ± 0.051

GKLLRNYTQNIDNLESY [SIR2]
protein stability index (doa10∆): 3.48 ± 0.21
protein stability index (pdr5∆): 3.17 ± 0.27
protein stability index (san1∆): 3.09 ± 0.13

GKLVESEDSMNVQLRDV [SMD3]
protein stability index (doa10∆): 3.26 ± 0.14
protein stability index (pdr5∆): 3.32 ± 0.1
protein stability index (san1∆): 3.33 ± 0.065
protein stability index (ubr1∆): 3.26 ± 0.041

GKSTADVKSSDSLKLNS [YJL041W/NSP1]
protein stability index (doa10∆): 3.23 ± 0.14
protein stability index (pdr5∆): 3.35 ± 0.12
protein stability index (san1∆): 2.96 ± 0.17
protein stability index (ubr1∆): 3.32 ± 0.14

GKTTSCTKLAVYYSKRG [SRP54]
protein stability index (pdr5∆): 2.76 ± 0.19
protein stability index (san1∆): 2.18 ± 0.22
protein stability index (ubr1∆): 2.51 ± 0.098

GKVVKNVLLLDSNGDFN [RRP46]
protein stability index (doa10∆): 3.35 ± 0.068
protein stability index (pdr5∆): 3.22 ± 0.058
protein stability index (san1∆): 3.29 ± 0.063
protein stability index (ubr1∆): 3.27 ± 0.043

GKYVIAGHVSGVITVHN [RPN14]
protein stability index (doa10∆): 1.55 ± 0.098
protein stability index (pdr5∆): 2.48 ± 0.092
protein stability index (san1∆): 2.48 ± 0.1
protein stability index (ubr1∆): 3.23 ± 0.038

GLCMLGTGKPEAIHDMF [RPN2]
protein stability index (doa10∆): 2.75 ± 0.15
protein stability index (pdr5∆): 3.46 ± 0.29
protein stability index (san1∆): 3.19 ± 0.064
protein stability index (ubr1∆): 3.18 ± 0.075

GLDATKLYVSHIQVNQA [RPL17A]
protein stability index (doa10∆): 2.5 ± 0.096
protein stability index (pdr5∆): 2.99 ± 0.063
protein stability index (san1∆): 3 ± 0.043
protein stability index (ubr1∆): 3.05 ± 0.05

GLDKFSNIDIRVRVTGG [RPS16A]
protein stability index (doa10∆): 1.51 ± 0.082
protein stability index (pdr5∆): 1.74 ± 0.072
protein stability index (san1∆): 1.52 ± 0.22
protein stability index (ubr1∆): 1.54 ± 0.055

GLFEKSTVSANHSNNDI [BRN1]
protein stability index (doa10∆): 3.12 ± 0.14
protein stability index (pdr5∆): 2.95 ± 0.11
protein stability index (san1∆): 3.19 ± 0.08
protein stability index (ubr1∆): 3.11 ± 0.12

GLIPADATFAGHSLGEY [FAS1]
protein stability index (doa10∆): 3.01 ± 0.087
protein stability index (pdr5∆): 3.21 ± 0.06
protein stability index (san1∆): 3.08 ± 0.11
protein stability index (ubr1∆): 3.03 ± 0.059

GLNRHYYSLNIDYHKTA [RPN11]
protein stability index (pdr5∆): 2.27 ± 0.29
protein stability index (san1∆): 2.85 ± 0.12
protein stability index (ubr1∆): 2.61 ± 0.14

GLPLGIAEEKMWSQFQT [YGR119C/NUP57]
protein stability index (doa10∆): 2.84 ± 0.14
protein stability index (ubr1∆): 3.05 ± 0.19

GLPTDAYVAIEQVKDDG [RPN8]
protein stability index (doa10∆): 2.61 ± 0.076
protein stability index (pdr5∆): 1.92 ± 0.1
protein stability index (san1∆): 2.59 ± 0.23
protein stability index (ubr1∆): 2.34 ± 0.08

GLPVGAIMNCADNSGAR [RPL23A]
protein stability index (doa10∆): 1.91 ± 0.053
protein stability index (pdr5∆): 2.28 ± 0.06
protein stability index (san1∆): 1.63 ± 0.068
protein stability index (ubr1∆): 1.83 ± 0.055

GLQDEIMKIGGIKLQMQ [SMC4]
protein stability index (doa10∆): 2.8 ± 0.071
protein stability index (pdr5∆): 3.13 ± 0.053
protein stability index (san1∆): 3.02 ± 0.058
protein stability index (ubr1∆): 3.17 ± 0.089

GLQGSGKTTSCTKLAVY [SRP54]
protein stability index (doa10∆): 2.47 ± 0.12
protein stability index (pdr5∆): 2.91 ± 0.077
protein stability index (san1∆): 1.97 ± 0.27
protein stability index (ubr1∆): 2.66 ± 0.089

GLSTDHTTQIVNLEDNT [YML103C/NUP188]
protein stability index (doa10∆): 2.89 ± 0.074
protein stability index (pdr5∆): 2.99 ± 0.078
protein stability index (san1∆): 2.88 ± 0.053
protein stability index (ubr1∆): 3.04 ± 0.047
